Where two headings read alike, the source gives them in different places.

Test [1] has as its target T1, EGFR on tumor target cells (MCF-7, Daudi, DK-MG, HCT-116) (UniProt P00533 25-1210, limits assumed). Kind of test: cell-based or functional assay.
The target in test [2] is T1, EGFR on tumor target cells (MCF-7, …). Put plainly: cell-based or functional assay. The source holds these as a separate data set.
For test [3], the target named is CD16A on primary human NK cells (human, UniProt P08637 17-254). Put plainly: cell-based or functional assay.
Test [4] deals with T1, EGFR on tumor target cells (MCF-7, …). Put plainly: cell-based or functional assay. The source holds these as a separate data set.
The target of test [5] is T2, biotinylated dimeric CD16A antigen (human, UniProt P08637 17-208, limits assumed, biotinylated (site not stated)).
T2 construct: Soluble antigen; also called soluble CD16A antigen
Put plainly: ELISA, biotinylated dimeric CD16A titrated on coated construct. The procedure:
(§1) For the capturing approach, 96-well ELISA plates (Immuno Maxisorp, Nunc) were coated overnight at 4° C. with His-tagged human EGFR or BCMA extracellular domain at concentrations of 3.0 or 0.4 μg/mL, respectively. After blocking with 3% (w/v) skimmed milk powder dissolved in phosphate buffered saline (PBS), antigen coated plates were used for capturing of different multivalent bispecific engagers at concentrations of 3-5 μg/mL in PBS containing 0.3% (w/v) skimmed milk powder. After washing three times with 300 μL per well of PBS containing 0.1% (v/v) Tween 20, plates were incubated with serial dilutions of biotinylated dimeric or monomeric CD16A antigen in PBS containing 0.3% (w/v) skimmed milk powder for 1.5 h at room temperature. After washing, plates were incubated with the detection conjugate Streptavidin HRP, 1:10,000 diluted in PBS containing 0.3% (w/v) skimmed milk powder for 1 h followed by washing and incubation with tetramethylbenzidine substrate (Seramun) for 1-2 min. Reaction was stopped by addition of 0.5 M H₂SO₄ (100 μL/well). Absorbance was measured at 450 nm using a multiwell plate reader, plotted and EC₅₀ values were determined by fitting a nonlinear regression model to sigmoidal dose-response curves (four parameters logistic fit) using GraphPad Prism software.
(§2) Concentration dependent binding of antibody constructs to coated recombinant CD16A antigen, or of soluble monomeric or dimeric CD16 antigen variants to coated or target antigen captured antibody constructs was analyzed in ELISA. Half maximal binding concentrations (EC₅₀) were determined by fitting a nonlinear regression model to sigmoidal dose-response curves (four parameters logistic fit) using GraphPad Prism software.

Test [6] addresses T3, biotinylated monomeric CD16A antigen (human, UniProt P08637 17-208, limits assumed, biotinylated (site not stated)).
T3 construct: Soluble antigen; also called soluble CD16A antigen
Kind of test: ELISA, biotinylated monomeric CD16A titrated on coated construct. Here is the method:
as §1, §2
For orientation: ELISA stands for enzyme-linked immunosorbent assay.

Test [7] concerns the target T4, recombinant CD16A 158F fused to monomeric human Fc (human, UniProt P08637 17-208).
T4 construct: also called recombinant CD16 antigen variant; not shown: monomeric human Fc
Kind of test: ELISA, construct titrated on coated CD16A 158F fused to monomeric human Fc. Here is the method:
To assess binding of EGFR/CD16 or BCMA/CD16 antibodies to coated antigen in ELISA, 96-well ELISA plates (Immuno Maxisorp, Nunc) were coated overnight at 4° C. with recombinant CD16 antigen variants fused to monomeric human Fc at a concentration of 1.5 μg/mL in 100 mM carbonate-bicarbonate buffer. After blocking with 3% (w/v) skimmed milk powder dissolved in phosphate buffered saline (PBS) serial dilutions of bispecific antibody constructs were incubated on the antigen coated plates for 1.5 h at room temperature. […] After washing, plates were incubated with tetramethylbenzidine substrate (Seramun) for 1-2 min. Reaction was stopped by addition of 0.5 M H₂SO₄ (100 μL/well). Absorbance was measured at 450 nm using a multiwell plate reader, plotted and EC₅₀ values were determined by fitting a nonlinear regression model to sigmoidal dose-response curves (four parameters logistic fit) using GraphPad Prism software.
as §2

Test [8] deals with recombinant CD16A 158V fused to monomeric human Fc (human, UniProt P08637 17-208). Put plainly: ELISA, construct titrated on coated CD16A 158V fused to monomeric human Fc.
Test [9] deals with T2, biotinylated dimeric CD16A antigen. Kind of test: ELISA, biotinylated dimeric CD16A titrated on construct captured by coated His-tagged human EGFR extracellular domain. Here is the method:
as §1, §2

Test [10] addresses T3, biotinylated monomeric CD16A antigen. Kind of test: ELISA, biotinylated monomeric CD16A titrated on construct captured by coated His-tagged human EGFR extracellular domain. The procedure:
as §1, §2

Test [11] addresses T5, BCMA on MM.1S target cells (UniProt Q02223 1-184, limits assumed).
T5 sequence (looked up): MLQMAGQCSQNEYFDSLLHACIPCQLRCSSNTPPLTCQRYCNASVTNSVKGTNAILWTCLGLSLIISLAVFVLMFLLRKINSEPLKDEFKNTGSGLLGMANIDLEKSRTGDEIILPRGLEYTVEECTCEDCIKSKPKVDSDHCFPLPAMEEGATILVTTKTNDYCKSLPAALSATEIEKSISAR
Put plainly: cell-based or functional assay.

For test [12], the target named is T2, biotinylated dimeric CD16A antigen. Kind of test: ELISA, biotinylated dimeric CD16A titrated on construct captured by coated His-tagged human BCMA extracellular domain. Here is the method: as §1, §2
The target in test [13] is T3, biotinylated monomeric CD16A antigen. Kind of test: ELISA, biotinylated monomeric CD16A titrated on construct captured by coated His-tagged human BCMA extracellular domain. Here is the method:
as §1, §2

T2 sequence (P08637 17-208 limits assumed): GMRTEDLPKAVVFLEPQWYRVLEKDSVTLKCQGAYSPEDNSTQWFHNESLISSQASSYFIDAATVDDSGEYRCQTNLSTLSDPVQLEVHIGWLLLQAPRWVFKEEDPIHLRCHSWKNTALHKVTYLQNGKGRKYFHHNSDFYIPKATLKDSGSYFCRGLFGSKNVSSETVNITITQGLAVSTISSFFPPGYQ
T3 sequence (P08637 17-208 limits assumed): as above
T4 sequence (P08637 17-208): as the sequence (P08637 17-208 limits assumed) above
recombinant CD16A 158V fused to monomeric human Fc, sequence (P08637 17-208 F176V): as the sequence (P08637 17-208 limits assumed) above, with F160V counted along it
CD16A on primary human NK cells, sequence (P08637 17-254 limits assumed): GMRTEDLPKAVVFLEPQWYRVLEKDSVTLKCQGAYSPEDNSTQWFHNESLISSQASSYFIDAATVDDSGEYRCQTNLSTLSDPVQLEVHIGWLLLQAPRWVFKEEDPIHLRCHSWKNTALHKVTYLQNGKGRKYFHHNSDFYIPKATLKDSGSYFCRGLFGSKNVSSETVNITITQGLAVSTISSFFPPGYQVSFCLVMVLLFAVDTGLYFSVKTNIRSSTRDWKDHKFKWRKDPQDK

B1: Bi-scDb-Fc_02 (bispecific antibody, human IgG1)
chain: QVQLQESGPGLVKPSETLSLTCTVSGGSVSSGSYYWSWIRQPPGKGLEWIGYIYYSGSTNYNPSLKSRVTISVDTSKNQFSLKLSSVTAADTAVYYCARNPISIPAFDIWGQGTMVTVSSGGSGGSGGSGGSGGSGGSQPVLTQPPSVSVAPGKTARITCGGNNIGSKSVHWYQQKPGQAPVLVIYYDSDRPSGIPERFSGSNSGNTATLTISRVEAGDEADYYCQVWDTSSDHVLFGGGTKLTVLEPKSCDKTHTCPPCPAPEFEGGPSVFLFPPKPKDTLMISRTPEVTCVVVAVSHEDPEVKFNWYVDGVEVHNAKTKPREEQYNSTYRVVSVLTVLHQDWLNGKEYKCKVSNKALPAPIEKTISKAKGQPREPQVYTLPPSREEMTKNQVSLTCLVKGFYPSDIAVEWESNGQPENNYKTTPPVLDSDGSFFLYSKLTVDKSRWQQGNVFSCSVMHEALHNHYTQKSLSLSPGGGGGSGGGGSSYVLTQPSSVSVAPGQTATISCGGHNIGSKNVHWYQQRPGQSPVLVIYQDNKRPSGIPERFSGSNSGNTATLTISGTQAMDEADYYCQVWDNYSVLFGGGTKLTVLGGSGGSQVQLVQSGAEVKKPGESLKVSCKASGYTFTSYYMHWVRQAPGQGLEWMGAIEPMYGSTSYAQKFQGRVTMTRDTSTSTVYMELSSLRSEDTAVYYCARGSAYYYDFADYWGQGTLVTVSSGGSGGSGGSGGSGGSGGSSYVLTQPSSVSVAPGQTATISCGGHNIGSKNVHWYQQRPGQSPVLVIYQDNKRPSGIPERFSGSNSGNTATLTISGTQAMDEADYYCQVWDNYSVLFGGGTKLTVLGGSGGSQVQLVQSGAEVKKPGESLKVSCKASGYTFTSYYMHWVRQAPGQGLEWMGAIEPMYGSTSYAQKFQGRVTMTRDTSTSTVYMELSSLRSEDTAVYYCARGSAYYYDFADYWGQGTLVTVSS
notes: Anti-EGFR scFv - silenced Fc - anti-CD16A scDb; Four anti-CD16A and two anti-EGFR Fv domains
For B1, the “EC50 [pM], 4 h calcein-release cytotoxicity on MCF-7 target cells, NK cells E:T 5:1” value in test [1] was 1.9 pM. In [1], the “Emax [%], 4 h calcein-release cytotoxicity on MCF-7 target cells, NK cells E:T 5:1” value is 32.9%. Further, the “EC50 [pM], 4 h calcein-release cytotoxicity on Daudi target cells, NK cells E:T 5:1” value in test [2] was 20.5 pM. Further, the results for the “Emax [%], 4 h calcein-release cytotoxicity on Daudi target cells, NK cells E:T 5:1” value in test [2] and in test [4] were 32.6% and 18.4%, respectively. Further, in test [3], the “Emax [%], 4 h calcein-release NK cell fratricide assay, E:T 1:1” value is 23%. The EC50 – broadly, the concentration giving half of the maximal effect – in test [5] was found to be 0.97 nM; in test [6], 3.1 nM; in [7], 0.13 nM; in [8] it was 0.11 nM; in test [9], 0.79 nM; in test [10], 1.74 nM.

B2: Bi-scDb-Fc_01 (bispecific antibody, human IgG1)
chain: EVQLLESGGGLVQPGGSLRLSCAASGFTFSNYDMAWVRQAPGKGLEWVSSISTRGDITSYRDSVKGRFTISRDNSKNTLYLQMNSLRAEDTAVYYCARQDYYTDYMGFAYWGQGTLVTVSSGGGGSGGGGSGGGGSAIQMTQSPSSLSASVGDRVTITCRASEDIYNGLAWYQQKPGKAPKLLIYGASSLQDGVPSRFSGSGSGTEFTLTISSLQPEDEATYYCAGPHKYPLTFGGGTKVEIKEPKSCDKTHTCPPCPAPEFEGGPSVFLFPPKPKDTLMISRTPEVTCVVVAVSHEDPEVKFNWYVDGVEVHNAKTKPREEQYNSTYRVVSVLTVLHQDWLNGKEYKCKVSNKALPAPIEKTISKAKGQPREPQVYTLPPSREEMTKNQVSLTCLVKGFYPSDIAVEWESNGQPENNYKTTPPVLDSDGSFFLYSKLTVDKSRWQQGNVFSCSVMHEALHNHYTQKSLSLSPGGGGGSGGGGSSYVLTQPSSVSVAPGQTATISCGGHNIGSKNVHWYQQRPGQSPVLVIYQDNKRPSGIPERFSGSNSGNTATLTISGTQAMDEADYYCQVWDNYSVLFGGGTKLTVLGGSGGSQVQLVQSGAEVKKPGESLKVSCKASGYTFTSYYMHWVRQAPGQGLEWMGAIEPMYGSTSYAQKFQGRVTMTRDTSTSTVYMELSSLRSEDTAVYYCARGSAYYYDFADYWGQGTLVTVSSGGSGGSGGSGGSGGSGGSSYVLTQPSSVSVAPGQTATISCGGHNIGSKNVHWYQQRPGQSPVLVIYQDNKRPSGIPERFSGSNSGNTATLTISGTQAMDEADYYCQVWDNYSVLFGGGTKLTVLGGSGGSQVQLVQSGAEVKKPGESLKVSCKASGYTFTSYYMHWVRQAPGQGLEWMGAIEPMYGSTSYAQKFQGRVTMTRDTSTSTVYMELSSLRSEDTAVYYCARGSAYYYDFADYWGQGTLVTVSS
notes: Anti-BCMA scFv - silenced Fc - anti-CD16A scDb
Turning to B2, in test [11], the “EC50 [pM], 4 h calcein-release cytotoxicity on BCMA+ MM.1S target cells, NK cells E:T 5:1” value was 1.1 pM. The “Emax [%], 4 h calcein-release cytotoxicity on BCMA+ MM.1S target cells, NK cells E:T 5:1” value in test [11] was 51.2%. Also, the EC50 in [5] was found to be 1.14 nM; in test [6], 3.4 nM; in test [7], 0.24 nM; in test [8] it was 0.17 nM; in [12], 0.64 nM; in test [13], 1.72 nM.

The values above are taken from patent US20240376208A1 (AFFIMED, published 2024).
